According to US20240165260A1, “CONJUGATES OF ANTIBODY AND FUNCTIONAL SUBSTANCE OR SALTS THEREOF, AND COMPOUNDS USED IN PRODUCTION OF THE SAME OR SALTS THEREOF” (priority 2021, published 2024):

Experiments:
[1] = Evaluation of aggregation ratio by size exclusion chromatography (SEC-HPLC); type: physicochemical; conditions: UV 280 nm
Description: SEC-HPLC analysis was performed according to a previous report (Chemistry Select, 2020, 5, 8435-8439, which is incorporated herein by reference in its entirety). Measurement was performed using the following conditions.
Measurement system: 1260 HPLC system (manufactured by Agilent)
Column: AdvanceBio SEC 300 Å, 2.7 μm, 4.6 mm×150 mm, manufactured by Agilent Technologies
Eluent: 100 mM sodium dihydrogen phosphate/sodium hydrogen phosphate, aqueous solution of 250 mM sodium chloride (pH 6.8), 10′% v/v isopropanol

[2] = Evaluation of hydrophobicity by hydrophobic column chromatography (HIC-HPLC); type: physicochemical; conditions: hydrophobicity measure, Tosoh Biobuthyl NPR column, UV 280 nm
Description: According to a previous report (Anal. Chem., 2019, 91, 20, 12724-12732, which is incorporated herein by reference in its entirety), HIC-HPLC analysis was performed. Measurement was performed using the following conditions. The hydrophobicity of an ADC can be evaluated by retention time of the ADC in HIC chromatogram.
Measurement system: Chromaster (registered trademark) (manufactured by Hitachi, Ltd.)
Column: Tosoh Biobuthyl NPR 2.5 μm 4.6×35 mm column manufactured by Tosoh Bio-Sciences Inc.
Gradient: linear gradient of eluent A/B
Eluent B: 25 mM Na2HPO4/NaH2PO4 (pH 6.0, 25 v/v % isopropanol added)

[3] = Test for stability of ADC mimic in mouse plasma (released fluorescent molecules); type: in vitro ADME; conditions: 0.1 mg/mL, 37° C., four days
Description: An ADC mimic was added to 500 μL of mouse plasma (manufactured by Charles River) so as to have a concentration of 0.1 mg/mL, and then the mixture was subjected to sterile filtration. 50 μL of this solution was poured into each of six Eppendorf tubes. Three of the six samples were stored in an incubator set at 37° C. for four days. The remaining three samples were stored in a freezer at −80° C. for four days similarly. To each of the samples, 100 μL of acetonitrile was added. The mixture was stirred by vortex, and then centrifuged to obtain a precipitate. The resulting supernatant solution was collected and subjected to HPLC analysis.
For the measurement, the amount of fluorescent molecules released from an ADC mimic was measured using a liquid chromatography/fluorescence detection method. The three samples stored in a freezer in Example 9-1 were taken as Day=0 samples, and the three samples stored at 37° C. in Example 9-1 were taken as Day=4 samples. A difference in fluorescence intensity between Day=4 samples and Day=0 samples was analyzed.
A releasing ratio of the fluorescent molecules was calculated according to Example 7-2.
Regarding the results, as illustrated in the following Table, a releasing ratio of the fluorescent molecules was evaluated.

cathepsin B = cathepsin B (Homo sapiens, UniProt P07858); assay: Cathepsin B cleavability test of ADC mimics (released fluorescent molecules, HPLC/fluorescence); type: biochemical; conditions: 1 mg/mL ADC mimic, MES buffer pH 5.0, 37° C., six hours
Description: Cleave abilities for various ADC mimics by cathepsin B were evaluated by analyzing the amount of fluorescent molecules released from the ADC mimics as described below.
A cathepsin B cleavability test was performed as follows according to a previous report (Nature Communications 2018, 9, 2512, which is incorporated herein by reference in its entirety). An ADC mimic was added to 180 μL of a MES buffer (10 mM MES, 40 μM DTT, pH 5.0) so as to have a concentration of 1 mg/mL, and then 30 μL of the solution was poured into each of six Eppendorf tubes. To each of three of the six samples, 100 μL of acetonitrile was immediately added at 0° C. The mixture was stirred by vortex, and then centrifuged to obtain a precipitate. The resulting supernatant solution was collected and subjected to HPLC analysis. The remaining three samples were incubated at 37° C. for six hours. To each of the samples, 100 μL of acetonitrile was added. The mixture was stirred by vortex, and then centrifuged to obtain a precipitate. The resulting supernatant solution was collected and subjected to HPLC analysis.
For the measurement, the amount of fluorescent molecules released from an ADC mimic was measured using a liquid chromatography/fluorescence detection method. The three samples to which acetonitrile was immediately added at 0° C. in Example 7-1 were taken as 0 hour samples, and the three samples incubated at 37° C. for six hours as described in Example 7-1 were taken as 6 hour samples. A difference in fluorescence intensity between the 6 hour samples and the 0 hour samples was analyzed.
Separately, a correlation between the area of a fluorescence intensity area by HPLC and a concentration was calculated using Pyrene. The difference in fluorescence intensity between the ADC mimics was converted into a concentration using the calculation formula. When the concentration at 0 hour was set to 100%, a ratio of the above-described difference in fluorescence intensity was calculated as a releasing ratio.

**Q.** What does the source list for CNC(=O)CCSC1CC(=O)N(CCCCCC(=O)N[C@@H](CCC(=O)O)C(=O)N[C@H](C(=O)N[C@@H](CCCNC(N)=O)C(=O)Nc2ccc(COC(=O)N(C)CC(=O)NCc3cc4ccc5cccc6ccc(c3)c4c56)cc2)C(C)C)C1=O (stereo partly drawn) [ADC mimic 1]?
**A.** aggregation ratio [1]: 3.0%; Retention time [2]: 12.8 min; Releasing ratio of payload on Day 4 [3]: 8%; Releasing ratio of fluorescent molecule for 6 hours (cathepsin B): 88%

**Q.** For CNC(=O)CCSC1CC(=O)N(CCCCCC(=O)N(CC(=O)O)CC(=O)N[C@H](C(=O)N[C@@H](CCCNC(N)=O)C(=O)Nc2ccc(COC(=O)N(C)CC(=O)NCc3cc4ccc5cccc6ccc(c3)c4c56)cc2)C(C)C)C1=O (stereo partly drawn) [ADC mimic 3], which aggregation ratio [1] is on record?
**A.** 2.9%

**Q.** What about the Retention time [2] of the same compound?
**A.** 12.7 min

**Q.** And the “Releasing ratio of payload on Day 4” value [3]?
**A.** 9%

**Q.** What about the “Releasing ratio of fluorescent molecule for 6 hours” value (cathepsin B) of the same compound?
**A.** 100%

**Q.** With CNC(=O)CCSC1CC(=O)N(CCCCCC(=O)N[C@@H](C(=O)N[C@H](CCCNC(N)=O)C(=O)Nc2ccc(COC(=O)N(C)CC(=O)NCc3cc4ccc5cccc6ccc(c3)c4c56)cc2)C(C)C)C1=O (stereo partly drawn) [ADC mimic 4, reference compound] as the compound, how does the aggregation ratio [1] read?
**A.** 6.2%

**Q.** What about the Retention time [2] of the same compound?
**A.** 13.1 min

**Q.** And the “Releasing ratio of payload on Day 4” value [3]?
**A.** 38%

**Q.** What about the “Releasing ratio of fluorescent molecule for 6 hours” value (cathepsin B) of the same compound?
**A.** 53%
